Reference: patent publication US20200148761A1 (Teva, published 2020)

Target: T1, human α-CGRP 1-36-COOH (human)
T1 construct: free C-terminal carboxyl, not amidated; also called 1-36 (not amidated at the C-terminus)
T1 peptide: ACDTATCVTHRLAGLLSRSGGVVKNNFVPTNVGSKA
Test: Biacore competition, 50 nM G1 Fab with 10 µM peptide, read on human α-CGRP chip
From the text: Y axis represents percentage of binding blocked by the presence of the competing peptide compared with the binding in the absence of the competing peptide. […]

B1: antibody G1 Fab fragment (Fab, V domains shown)
VH: EVQLVESGGGLVQPGGSLRLSCAASGFTFSNYWISWVRQAPGKGLEWVAEIRSESDASATHYAEAVKGRFTISRDNAKNSLYLQMNSLRAEDTAVYYCLAYFDYGLAIQNYWGQGTLVTVSS
VL: EIVLTQSPATLSLSPGERATLSCKASKRVTTYVSWYQQKPGQAPRLLIYGASNRYLGIPARFSGSGSGTDFTLTISSLEPEDFAVYYCSQSYNYPYTFGQGTKLEIK
  percentage of binding blocked by competing peptide: ~40%
